Assay results: the DeepSol protein solubility set

Assay: soluble on expression in E. coli; label from the status in PepcDB or PDB records

Soluble on expression in E. coli, soluble:
MKPPPRRRAAPARYLGEVTGPATWSAREKRQLVRLLQARQGQPEPDATELARELRGRSEAEIRVFLQQLKGRVAREAIQKVHPGGLQGPRRREAQPPAPIEVWTDLAEKITGPPEEAVAVAFSQVLTIAATEPVTLLHSKPPKPTQARGKPLLLSAPGGQEDPAPEIPSSAPAAPSSAPRTPDPAPEKPSESSAGPSTEEDFAVDFEKIYKYLSSVSRSGRSPELSAAESAVVLDLLMSLPEELPLLPCTALVEHMTETYLRLTAPQPIPAGGSLGPAAEGVGAGSKAPEETPPATEKAEHSELKSPWQAAGICPLNPFLVPLELLGRAATPAR
AHHHHHHGSKIKRKIYWTKEFDSSHLLDLPYESKCKRIHGHTYRIEIEIYGDINEQGMIFDFNHLSDLIKELDHKIIVSKNWIEEREEFIVVKKNQKTLEIPRSEVVVIDKPNVTAEYLAEWFVEKILEKADKNIYEIKVRVWEDPRSYAEVTLELQGS
GQSRERLVKWLQDAYAMEKEAETMMAAMASRIEHYPELKRRIEQHVEETQQQSAGVQRCLELLNGSIPTAKGMLSSVLASMHAAGNSMMTDEVTKGVGISYAFEHLEIASYRALVVAARSAGEQEVAQICEDILQQEIEMAEWLIEHQEAIVVAFLEREQLEGVGS
MSFIDPYQHIIVEHQYSHKFTVVVLRATKVTKGAFGDMLDTPDPYVELFISTTPDSRKRTRHFNNDINPVWNETFEFILDPNQENVLEITLMDANYVMDETLGTATFTVSSMKVGEKKEVPFIFNQVTEMVLEMSLEV
DDIEADHVGSYGIVVYQSPGDIGQYTFEFDGDELFYVDLDKKETIWMLPEFAQLRSFDPQGGLQNIATGKHNLGVLTKRSNSTPATNEAPQATVFPKSPVLLGQPNTLICFVDNIFPPVINITWLRNSKSVADGVYETSFFVNRDYSFHKLSYLTFIPSDDDIYDCKVEHWGLEEPVLKHWEP
GMRKDDVVIVTCAITGAIHTPSMSPYLPVTPDQIVEEAVKAAEAGAGMVHIHARDPKDGRPTTDVEVFRYICREIKKQSDVVINVTTGGGGTLGIPVEERAKVVPALKPEIATFNMGSMNFAIHPLLKKYKEFKYDWEPEYLEMTRDIVFRNTFKDLEALSRIFKENDTKPELECYDIGQIYNTAFMFHEGYLEPPLRLQFIHGILGGIGTAVEDVLFMKQTADRLIGRENYTWSLVGAGRFQMPLGTLAVIMGGDVRVGLEDSLYIERGKLAKSNAEQVEKMVRIVKELGKRPATPDEVREILGLKGKERVNF

Soluble on expression in E. coli, not soluble:
MQRQEQLKKWLAEQYPGDEIQLEFAAADADFRRYFRAIWPDGASRIVMDAPPEHIGTDAYVKVRDIFSMVKVPEIYLRDRDQGFIVMEDLGKVTYLAALQHDERPFVHRHLLLEALDTLVDIQKASQPEVLPEYDETLLTRELNLFPEWFCAKELGKPLNFKQRQLWDAGVQALLPALLTQPKVFVHRDFIVRNLMLTPGTPGVLDFQDAVYGPISYDAVSLLRDAFIEWDEEFVLDLAIRYWEKARAAGLPVPEAFDDFYRAFEWMGVQRHLKVAGIFARLYHRDGKDKYLAEIPRFIKYLKRTTRRYAELAPFYQLLVDLVGRDATDEELQSSYPVLGVKGHLEHHHHHH
MKKTRTANLHHLYHEALPEDVKLTPRVEVDNVHQRRTTDVYEHALTITAWQQIYDQLHPGKFHGEFTEILLDEIQVFREYTGLALRQSCLVWPNSFWFGIPATRGEQGFIGAQGLGSAEIATRPGGTEFELSTPDDYTILGVVISEDVISRQATFLHNPERVLHMLRNQLALEVKEQHKAALWGFVQQALATFSESPETLHQPAVRKVLSDNLLLAMGTMLEEAKPIHSAESISHQGYRRLLSRAREYVLENMSEPLTVLDLCNQLHVSRRTLQNAFHAILGIGPNAWLKRIRLNAVRRELISPWSQSATVKDAAMQWGFWHLGQFATDYQQLFAEKPSLTLHQRMRQWA
QYQDYASFFRNNKSVTHLIVPSNFIGAGVSKYKDWKRSNIPYTQLDMAVVQNRPAGSLRRFVVLVVGETTRAANWGLNGYSRQTTPLLAARGDEIVNFPQVRSCGTSTAHSLPCMFSTFDRTDYDEIKAEHQDNLLDIVQRAGVEVTWLENDSGCKGVCGKVPNTDVTSLNLPEYCRNGECLDNILLTKFDEVLNKNDKDAVLILHTIGSHGPTYYERYTEAERKFTPTCDTNEINKCTRATLVNTYDNTVLYVDQFIDKVIRKLENRDDLESVVHYVSDHGESLGENG
MSLDGVLISSREAIAAAWSRVAGEQGVALGPDCLRDHVHGRPGGYTLDYLFGHLPMERRRILKQRVDALEEGADCPLLPGVAAVIRQLRWLDVPLALVTSSWPARIDHVLRQHDLQAAFRTLVSRDDVVHGKPAPDGYRLAAARLGVAPSRCLVFEDSLSGVQAACAAGATCVAIGEESGLLAAGARWSVRDFRELRIVREDDRLYCQHRHPATTGSERSVGVPEGHHHHHH
MGSDKIHHHHHHMVLRYTALGDSLTTGRGSGLFSPGFVQRFGDMMEADLKTRTAINIFARSGLNTEEILGLLSYPYVQKCIRDADMITITGCGNDLIDSVLAYQTSKDETIFSRVSAHCHENFEKMIAKVAEIKGENPSPYAIRVFNLYNPFPEIDIAGKWITSFNSHLETLASAPHVKIADAYSIFKGKEQEYLSFDGVHPNSKGYQAMAEAVHKLGYKELSVS
MESKRLDNAALAAGISPNYINAHGKPQSISAETKRRLLDAMHQRTATKVAVTPVPNVMVYTSGKKMPMVVEGSGEYSWQLTTEEGTQYKGHVTGGKAFNLPTKLPEGYHTLTLTQDDQRAHCRVIVAPKRCYEPQALLNKQKLWGACVQLYTLRSEKNWGIGDFGDLKAMLVDVAKRGGSFIGLNPIHALYPANPESASPYSPSSRRWLNVIYIDVNAVEDFHLSEEAQAWWQLPTTQQTLQQARDADWVDYSTVTALKMTALRMAWKGFAQRDDEQMAAFRQFVAEQGDSLFWQAAFDALHAQQVKEDEMRWGWPAWPEMYKNVDSPEVRQFCEEHRDDVDFYLWLQWLAYSQFAACWEISQGYEMPIGLYRDLAVGVAEGGAETWCDRELYCLKASVGAPPDILGPLGQNWGLPPMDPHIITARAYEPFIELLRANMQNCGALRIDHVMSMLRLWWIPYGETADQGAYVHYPVDDLLSILALESKRHRCMVIGEDLGTVPVEIVGKLRSSGVYSYKVLYFENDHEKTFRAPKAYPEQSMAVAATHDLPTLRGYWESGDLTLGKTLGLYPDEVVLRGLYQDRELAKQGLLDALHKYGCLPKRAGHKASLMSMTPTLNRGLQRYIADSNSALLGLQPEDWLDMAEPVNIPGTSYQYKNWRRKLSATLESMFADDGVNKLLKDLDRRRRAAAKKK
MNLPEVSEKLIEQLNHGSTKAFDKIYHTYYLYLCAIAVYYVHDKRVAGEIVNDVFVSFWQNRHHITYPALPYLRRAIQNASISYLRSSAFNERIMTEQMEEIWAFLENHILSSDNPLQALESSEMNEIILRKVEELPAKCRAVFKASLYEGKSYSEIAEEQNINVATVRVQMKIALTKLRESLGTPYMIAILMFL
MKSAIPSLMVQGTTSDAGKSVLVAGLCRVLARKGINVAPFKPQNMALNSAVTKDGGEIGRAQAVQAQACNIEPTVHMNPVLIKPNSDTGAQIILQGKALSNMDAASFHDYKKVAMNTVLDSFSKLTKEFDSIMIEGAGSPAEINLREGDIANMGFAEAADVPVIIVADIDRGGVFAHLYGTLALLSESEQTRVKGFVINRFRGDIRLLQSGLDWLEEKTGKPVLGVLPYLHGLNLEAEDAITAQQELNSEVKLNVVVPVLTRISNHTDFDVLRLNPDINLSYVGKGEKI
MRETSSREDTNNIGKAPEMSGGTIMDTMTSLPHQNDQNVIRHLTNLVKSPASGDDDIKKKEDSIMELGNILAQNKQTEELRNMIEQTRPFLVSLGKAKAAKLVRDLVDLCLKIDDQDGDIKVGLVKECIQWATEQNRTFLRQTLTARLVRLYNDLQRYTQALPLAADLIRELKKVDDKDVLVEVELEESKAYYNLSNIGRARASLTGARTTANAIYVNPRMQAALDLQSGILHAADEKDFKTAFSYFYEAFEGYDSVDEKVSALTALKYMLLCKVMLDLPDEVNSLLSAKLALKYNGSDLDAMKAIAAAAQKRSLKDFQVAFGSFPQELQMDPVVRKHFHSLSERMLEKDLCRIIEPYSFVQIEHVAQQIGIDRSKVEKKLSQMILDQKLSGSLDQGEGMLIVFEIAVPDEAYQTALDTIHAMGEVVDALYSNASKIN
MSLTRGEARRPPQEFDRVLSSMCTTPHPAAREAAQAFLATNPGDPETYPAVAERERDAVALLGEIVGLSSPHGYIAAGGTEANLQAVRAARNRADADAVNVVAPASAHFSFQKAADVLGVELRLAPTDGDHRADVAAVADLVDGDTAVVVGVAGTTEYGRVDPIPALADIAAGVDANLHVDAAWGGFVLPFTDHDWSFADAPVNTMAIDPHKMGQAPVPAGGFLARDPETLDALAIETPYLESDTQPTLGGTRSGAGVAGALASLRALWPDGYREQYERTQGNAEYLAAELAARGYDVVDPELPLVAADMPDAEFQALREEGWRISRTASDALRVVCMPHVTREMLAAFLDDVDALAEGHHHHHH
MGSDKIHHHHHHMNILVSNGEEHVNQTIASFFHQRGDRPILLFTEKEKHLEYVAGHPEQEAVLCTTYEEETLAAMVKEAFEEEAIDVLVHGNEMVNEAELLERDPSSLNEVVQKALYHLFLLNKVVVRDMVKRKQGKIIFPLFYDPLYYAGYASSPILNQAKLSLMKCMSRELGAFKINVNSITFGYYNDQFTREEKKATKSQVEIFCLKPKLPEIEEYVHSIGLLVDPSASLIGGENLHVGAGIETGI
MGSDKIHHHHHHMKNRIIEKIENALQTLKNGGLIIITDDENRESEGDMVGLAEYVTPKAVNTMVTNARGLLCVPMSAEIAQKLGLSPMVTNAEDAFGTAFTISTDAKTTKTGISAFDRAKTIQKLADPQAKFSEFYHPGHVFPLIAEEGGVLARGGHTEAAVDLAKLAGVRPVAYITEVLKKDGTMARRNTLKSLAEGMQMPLLTIEEIKIYRYMKDAGIVKSVAKVHLPTKYGEFEMEAFDTGAGQEPTLLLTKGSLSEVQPLLLRIHSECLTGDIFGSKRCDCGEQLERSLKEIQSRGRGALLYLRQEGRGIGLANKLKAYELQEQGMDTVEANLKLGFQADERHYGVAAAILRKKGITKVNLLTNNPDKIKQLETLGIKVEERVTIQIPARPENRSYLKVKKEKMHHLLKGMD
MGSDKIHHHHHHMDSYKQYIKEALPNLSIHSYKQNEEGWDNVAIIVNDELLFRFPRKQEYAMRIPLEKELCTLLSCSLHEIEVPKYHLFYEKNTDAIPLCSYYTLIHGEPLKTEIVTTLEKQERKALITQLATFLAALHSIPLKSVTALGFPIEKTLTYWKELQAKLNEYVTNSLTSFQKSTLNRLFENFFACLATSKFQNTIIHADFTHHHILFDKQNKTISGVIDFGDAQIGDPAFDFAGLYYDFGHEFTTSVYEQYSTLTSHHDPLLIHRITSFYQYSPLLHNMIYNFETKNELEFLASIEQLKVILQG
MAILKAQHLAKSYKKRKVVSDVSLQVESGQIVGLLGPNGAGKTTSFYMIVGLVARDEGTITIDDNDISILPMHSRSRMGIGYLPQEASIFRKLSVEDNIMAVLQTREELTHEERQDKLEDLLEEFHIQHIRKSAGMALSGGERRRVEIARALAANPQFILLDEPFAGVDPISVIDIKKIIEHLRDRGLGVLITDHNVRETLDVCEKAYIVSQGRLIAEGTPQDVLNNEQVKQVYLGEQFRL
